“Also recorded” adds a separate entry of the source.
Experiments:
human MerTK = biological target: T1, human MerTK (Homo sapiens, UniProt Q12866); assay: MerTK phosphorylation inhibition test in hMerTK-EL4 cells stimulated with human Gas6; format: cell-based; design: expressed in transfected cells; host or cells: mouse lymphoma cell line EL4 (hMerTK-EL4); conditions: hMerTK-EL4, antibody 1 hour, then 200 nM human Gas6 for 10 minutes; phospho-Mer ELISA; FIG. 1
T1 sequence (Q12866 21-999): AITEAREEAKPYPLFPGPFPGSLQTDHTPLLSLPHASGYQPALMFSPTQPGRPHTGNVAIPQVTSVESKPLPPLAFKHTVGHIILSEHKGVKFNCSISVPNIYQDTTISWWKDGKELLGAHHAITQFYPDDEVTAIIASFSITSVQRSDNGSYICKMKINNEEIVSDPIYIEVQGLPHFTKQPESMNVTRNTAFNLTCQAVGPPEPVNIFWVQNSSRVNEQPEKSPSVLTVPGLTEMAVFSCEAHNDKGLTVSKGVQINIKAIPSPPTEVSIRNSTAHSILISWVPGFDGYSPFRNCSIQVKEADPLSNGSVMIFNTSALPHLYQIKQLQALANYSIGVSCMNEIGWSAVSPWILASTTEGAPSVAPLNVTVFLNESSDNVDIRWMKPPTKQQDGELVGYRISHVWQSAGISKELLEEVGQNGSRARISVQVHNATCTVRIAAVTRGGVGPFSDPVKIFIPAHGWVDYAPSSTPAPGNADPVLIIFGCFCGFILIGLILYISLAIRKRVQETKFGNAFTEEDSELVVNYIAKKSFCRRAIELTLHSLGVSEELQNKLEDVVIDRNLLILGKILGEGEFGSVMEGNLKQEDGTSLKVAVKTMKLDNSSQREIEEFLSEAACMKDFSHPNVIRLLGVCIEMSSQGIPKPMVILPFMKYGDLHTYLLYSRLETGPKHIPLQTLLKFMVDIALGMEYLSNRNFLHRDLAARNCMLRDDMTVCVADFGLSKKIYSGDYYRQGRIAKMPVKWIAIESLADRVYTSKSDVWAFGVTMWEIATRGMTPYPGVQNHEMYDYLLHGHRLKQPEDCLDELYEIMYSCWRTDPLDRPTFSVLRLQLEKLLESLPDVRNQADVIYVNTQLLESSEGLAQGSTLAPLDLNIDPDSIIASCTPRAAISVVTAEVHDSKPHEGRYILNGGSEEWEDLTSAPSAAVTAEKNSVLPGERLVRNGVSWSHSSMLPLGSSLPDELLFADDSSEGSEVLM
Experimental: On the basis of the procedures indicated below, the clones were evaluated for MerTK phosphorylation inhibitory activity. Higher activity means higher binding ability to MerTK.
The cells (hMerTK-EL4) stably expressing human MerTK were cultured in a “DMEM high glucose medium” (Thermo Fisher Scientific Inc.) containing 10% FBS. After the cultivation, the cells were washed in PBS, suspended in a serum-free medium, plated in a 96-well plate at 1×10^6 cells/well and incubated at 37° C. for 3 hours. After the incubation, the respective clones were added, the hMerTK-EL4 was allowed to react for 1 hour, stimulated with 200 nM human Gas6 (R&D Systems) for 10 minutes and centrifuged and collected. The collected hMerTK-EL4 was lysed in a cell lysis solution, and the level of the phosphorylated MerTK protein in the lysate was determined using “Human Phospho-Mer DuoSet IC ELISA” (R&D Systems). The cell lysis solution used contained 1% “IGEPAL CA-630” (SIGMA) and 1×concentration of “Halt Protease and Phosphatase Inhibitor Single-Use Inhibitor Cocktail” (Thermo Fisher Scientific Inc.) added to MilliQ water.

[1] = biological target: T2, binding of MerTK with Gas6 (Homo sapiens, UniProt Q12866); assay: Test 6: ligand binding inhibition ELISA, MerTK with Gas6; conditions: human MerTK 5 μg/ml immobilized; biotinylated Gas6 10 nM; FIGS. 13 and 15
T2 construct: purchased R&D Systems
T2 sequence (Q12866 26-499 limits assumed): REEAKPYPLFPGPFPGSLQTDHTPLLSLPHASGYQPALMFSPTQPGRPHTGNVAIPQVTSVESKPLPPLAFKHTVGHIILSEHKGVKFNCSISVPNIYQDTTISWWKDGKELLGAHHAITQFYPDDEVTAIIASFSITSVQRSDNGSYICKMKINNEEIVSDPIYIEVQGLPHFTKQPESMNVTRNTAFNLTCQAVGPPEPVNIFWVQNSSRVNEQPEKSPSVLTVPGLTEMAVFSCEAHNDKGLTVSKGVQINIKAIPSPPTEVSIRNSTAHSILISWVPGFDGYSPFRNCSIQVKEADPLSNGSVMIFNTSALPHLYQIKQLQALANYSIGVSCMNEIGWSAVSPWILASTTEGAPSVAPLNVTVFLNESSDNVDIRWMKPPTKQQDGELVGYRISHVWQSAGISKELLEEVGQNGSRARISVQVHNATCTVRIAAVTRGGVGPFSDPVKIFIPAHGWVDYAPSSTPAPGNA
Experimental: (§1) “20A77” and “24A1” were evaluated for the ability to inhibit binding of MerTK with various ligands. The MerTK ligands used were human Gas6 (R&D Systems) and human TULP1 (abcam plc.) which were respectively biotinylated using “Biotin Labeling Kit-NH” (Dojindo Laboratories Co., Ltd.). […] TULP1 is a ligand correlated with ocular toxicity, and an antibody having an activity to inhibit binding of MerTK with TULP1 may have ocular toxicity. Thus, an antibody having high inhibitory activity of binding to Gas6 and low inhibitory activity of binding to TULP1 may be an efficacious anti-tumor agent having low ocular toxicity.
(§2) The ligand binding inhibition test was carried out as indicated below. First, human MerTK (R&D Systems) was added to an ELISA plate (Nunc) at a concentration of 5 μg/ml and immobilized overnight at room temperature. After removing the immobilization solution, 1% BSA/PBS was added for blocking reaction and left to stand at room temperature for 1 hour. After the blocking, the plate was washed with 0.05% Tween 20/PBS and an antibody solution was added for primary reaction at room temperature for 1 hour. […] After washing, a chromogenic substrate solution of TMB (Dako) was added for chromogenic reaction for 20 minutes, 1 N sulfuric acid was added to terminate the reaction and the absorbance was measured at 450 nm.

[2] = biological target: T3, binding of MerTK with TULP1 (Homo sapiens, UniProt Q12866); assay: Test 6: ligand binding inhibition ELISA, MerTK with TULP1; conditions: human MerTK 5 μg/ml immobilized; biotinylated TULP1 40 nM; FIGS. 14 and 16
T3 construct: purchased R&D Systems
T3 sequence (Q12866 26-499 limits assumed): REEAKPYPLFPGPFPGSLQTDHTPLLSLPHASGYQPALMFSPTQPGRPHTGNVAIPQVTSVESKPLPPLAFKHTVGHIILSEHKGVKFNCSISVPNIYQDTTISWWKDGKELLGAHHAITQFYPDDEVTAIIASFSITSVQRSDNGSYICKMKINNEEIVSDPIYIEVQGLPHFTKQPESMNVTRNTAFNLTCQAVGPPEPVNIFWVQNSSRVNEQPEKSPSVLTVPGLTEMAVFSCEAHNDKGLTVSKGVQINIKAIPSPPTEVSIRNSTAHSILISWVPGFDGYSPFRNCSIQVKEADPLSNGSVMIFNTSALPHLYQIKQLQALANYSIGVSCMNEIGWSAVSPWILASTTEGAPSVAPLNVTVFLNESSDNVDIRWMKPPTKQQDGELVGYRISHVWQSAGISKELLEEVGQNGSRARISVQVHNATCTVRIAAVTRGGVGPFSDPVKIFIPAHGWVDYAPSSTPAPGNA
Experimental: as §1, §2

[3] = biological target: T4, human MerTK on cells (EL4 cells stably expressing human MerTK); human melanoma cell line G361 intrinsically … (human, UniProt Q12866 21-999); assay: inferred from inhibition of Gas6-induced MerTK phosphorylation on hMerTK-EL4 cells
T4 construct: whole, on cells; also called hMerTK-EL4
T4 sequence (looked up): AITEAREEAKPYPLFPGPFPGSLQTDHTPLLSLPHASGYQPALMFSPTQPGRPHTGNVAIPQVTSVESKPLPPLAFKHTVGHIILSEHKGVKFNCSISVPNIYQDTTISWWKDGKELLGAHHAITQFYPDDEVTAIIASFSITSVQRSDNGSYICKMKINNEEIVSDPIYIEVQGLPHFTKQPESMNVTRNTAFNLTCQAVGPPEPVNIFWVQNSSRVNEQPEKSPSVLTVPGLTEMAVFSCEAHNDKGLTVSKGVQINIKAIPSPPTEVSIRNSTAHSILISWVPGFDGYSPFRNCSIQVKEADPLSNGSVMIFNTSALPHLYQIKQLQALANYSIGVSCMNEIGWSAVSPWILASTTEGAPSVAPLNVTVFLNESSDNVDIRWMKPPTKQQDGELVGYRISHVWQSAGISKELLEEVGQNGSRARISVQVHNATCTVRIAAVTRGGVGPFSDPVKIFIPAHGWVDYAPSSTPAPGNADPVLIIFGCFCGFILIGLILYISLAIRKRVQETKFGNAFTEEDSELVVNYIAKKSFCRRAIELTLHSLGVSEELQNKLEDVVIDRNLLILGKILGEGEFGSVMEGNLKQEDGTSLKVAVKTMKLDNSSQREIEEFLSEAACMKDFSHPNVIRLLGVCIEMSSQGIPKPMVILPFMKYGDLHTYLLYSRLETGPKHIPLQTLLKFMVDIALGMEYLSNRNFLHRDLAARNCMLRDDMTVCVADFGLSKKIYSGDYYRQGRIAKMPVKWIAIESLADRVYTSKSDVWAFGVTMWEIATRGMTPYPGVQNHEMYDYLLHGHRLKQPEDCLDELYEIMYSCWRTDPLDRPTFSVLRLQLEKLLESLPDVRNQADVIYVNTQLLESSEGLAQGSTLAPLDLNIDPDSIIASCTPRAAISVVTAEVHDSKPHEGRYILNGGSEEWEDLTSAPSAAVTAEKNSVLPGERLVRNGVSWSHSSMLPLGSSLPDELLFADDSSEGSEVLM
Experimental: The cells (hMerTK-EL4) stably expressing human MerTK were cultured in a “DMEM high glucose medium” (Thermo Fisher Scientific Inc.) containing 10% FBS. After the cultivation, the cells were washed in PBS, suspended in a serum-free medium, plated in a 96-well plate at 1×10⁶ cells/well and incubated at 37° C. for 3 hours. After the incubation, the respective clones were added, the hMerTK-EL4 was allowed to react for 1 hour, stimulated with 200 nM human Gas6 (R&D Systems) for 10 minutes and centrifuged and collected. The collected hMerTK-EL4 was lysed in a cell lysis solution, and the level of the phosphorylated MerTK protein in the lysate was determined using “Human Phospho-Mer DuoSet IC ELISA” (R&D Systems). The cell lysis solution used contained 1% “IGEPAL CA-630” (SIGMA) and 1×concentration of “Halt Protease and Phosphatase Inhibitor Single-Use Inhibitor Cocktail” (Thermo Fisher Scientific Inc.) added to MilliQ water.
Among these 14 clones, “20A77” and “24A1” were selected as clones showing particularly high inhibitory activity and subjected to the following tests.

B1: 20A77 (antibody, V domains shown)
VH: QVQLQQPGTELVKPGASVKLSCRASGNTFTSYWMHWVKQRPGQGLEWIGNINPSNGGTNYNEKFKSKATLTVDKSSSTAYMQLSSLTSEDSAVYYCARLNYYGFDGFAFWGQGTLVTVSA
VL: DIKMTQSPSSMYASLGERVTITCKASQDINSYLSWFQQKPGKSPKTLIYRANRLVDGVPSRFSGSGSGQDYSLTISSLEYEDMGIYYCLQYDEFPFTFGSGTKLEIK
notes: Mouse monoclonal antibody from a hybridoma clone (MerTK knockout mice); In Test 2 (1) the hybridoma clone was added
- MerTK phosphorylation inhibitory activity (human MerTK): inhibited binding of Gas6 with MerTK and MerTK phosphorylation in a concentration dependent manner
- inhibition of binding of Gas6 with MerTK [1]: inhibited binding of Gas6 with MerTK; also recorded: strongly inhibited binding of Gas6 with MerTK
- inhibition of binding of TULP1 with MerTK [2]: did not inhibit binding of TULP1 with MerTK
- binding result [3]: binds
